The target of the assay is T1, Recombinant human TLR2 protein Glu21-Leu590, with a C-terminal 10-His tag (human, UniProt O60603 21-590).
T1 construct: Human Toll-like receptor 2, residues Glu21-Leu590; In the functional rows the TLR2 is the endogenous receptor on neutrophils or ATRA-differentiated HL-60 cells, not this soluble construct; also called TLR2-10xHis; Toll-like receptor 2; source: bought: R&D Systems (Cat. # 2616-TR-050); not shown: His10, C-terminal, kept
The assay is described as follows: ELISA; Competitive ELISA: 0.625 μg TLR2-10xHis in 100 µL PBS-T pre-incubated with 0.78125-50 μg Pam3CSK4 or BSA (control), then added to wells coated with 0.05 µg HP-NAP, room temperature 2 h; detected with anti-6x His tag antibody. Particulars: both partners purified. A general note: An ELISA detects its analyte on a solid surface through an enzyme-linked reagent.

This note sets out measurements from article PMC8584237, “Helicobacter pylori Neutrophil-Activating Protein Directly Interacts with and Activates Toll-like Receptor 2 to Induce the Secretion of Interleukin-8 from Neutrophils and ATRA-Induced Differentiated HL-60 Cells” (International Journal of Molecular Sciences, 2021).

T1 sequence (O60603 21-590): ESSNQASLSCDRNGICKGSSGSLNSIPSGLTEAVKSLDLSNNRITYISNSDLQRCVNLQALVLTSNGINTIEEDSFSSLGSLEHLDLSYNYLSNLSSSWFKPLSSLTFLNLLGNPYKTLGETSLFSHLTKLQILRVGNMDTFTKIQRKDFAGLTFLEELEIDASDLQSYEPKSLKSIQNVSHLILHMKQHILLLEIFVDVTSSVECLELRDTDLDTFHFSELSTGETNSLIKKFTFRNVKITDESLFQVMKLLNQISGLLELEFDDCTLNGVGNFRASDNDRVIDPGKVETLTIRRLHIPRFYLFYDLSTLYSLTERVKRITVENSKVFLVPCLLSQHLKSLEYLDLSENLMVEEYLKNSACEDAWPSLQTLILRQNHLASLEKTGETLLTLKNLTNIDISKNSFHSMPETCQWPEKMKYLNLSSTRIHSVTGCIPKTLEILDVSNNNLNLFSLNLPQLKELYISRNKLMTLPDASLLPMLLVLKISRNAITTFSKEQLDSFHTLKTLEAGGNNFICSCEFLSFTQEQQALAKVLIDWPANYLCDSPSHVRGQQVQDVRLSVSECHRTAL

B1: Helicobacter pylori neutrophil-activating protein (natural protein)
chain: MKTFEILKHLQADAIVLFMKVHNFHWNVKGTDFFNVHKATEEIYEEFADMFDDLAERIVQLGHHPLVTLSEAIKLTRVKEETKTSFHSKDIFKEILEDYKYLEKEFKELSNTAEKEGDKVTVTYADDQLAKLQKSIWMLQAHLA
notes: also called HP-NAP; NAP; source: E. coli BL21(DE3) carrying pET42a-NAP, purified (two gel-filtration steps: Sephacryl S-300, Superdex 200; endotoxin removed); copies: 12
B1: the binding result was “binds”.
